Legend:
Assay in all cases: Carterra HC30M chip, antibody captured via anti-DYKDDDDK, PD-L1 as analyte
[1] = molecular target: T1, mouse PD-L1 protein (ACRO, PD1-M5251) (mouse, UniProt Q9EP73 19-238)
T1 construct: Bought protein; also called Mouse PDL1-Fc
Method: (§1) The anti-[…] antibody was bound to the HC30M chip via amino coupling, then 2 μg/mL of humanized PD-L1 single-domain antibody was captured. […] Kinetic constants were obtained by fitting with Carteria software.

[2] = molecular target: T2, human PD-L1 protein (ACRO, PD1-H5258) (human, UniProt Q9NZQ7 19-238)
T2 construct: Bought protein; also called Human PDL1-Fc
Method: as §1

[3] = molecular target: T3, monkey PD-L1 protein (Kactus Biosystems, PDL-CM210) (monkey)
T3 construct: Bought protein; also called Monkey PDL1-Fc
Method: as §1

T2 sequence (Q9NZQ7 19-238): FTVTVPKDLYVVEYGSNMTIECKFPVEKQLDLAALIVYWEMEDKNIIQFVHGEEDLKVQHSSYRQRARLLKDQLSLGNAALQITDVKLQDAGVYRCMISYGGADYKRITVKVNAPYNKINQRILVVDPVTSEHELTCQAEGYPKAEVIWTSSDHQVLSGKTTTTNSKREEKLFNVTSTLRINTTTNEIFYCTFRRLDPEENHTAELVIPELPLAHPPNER
T1 sequence (Q9EP73 19-238): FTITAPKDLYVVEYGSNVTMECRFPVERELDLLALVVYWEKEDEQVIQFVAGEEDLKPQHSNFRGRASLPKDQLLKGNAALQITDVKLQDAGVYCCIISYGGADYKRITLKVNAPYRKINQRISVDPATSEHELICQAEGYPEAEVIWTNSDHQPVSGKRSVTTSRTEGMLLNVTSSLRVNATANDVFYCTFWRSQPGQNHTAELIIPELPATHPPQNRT

B1: 4A7 hu-3 (Fc fusion)
chain: EVQLLESGGGLVQPGGSLRLSCAASGRTFSTNVMGWFRQAPGKGLEWVSAISRAGSTYSADSVKGRFTISRDNSKNTLYLQMNSLRAEDTAVYYCAAGSSPTAIFGKSGMDYWGQGTQVTVSSGGGGSGGGGSDKTHTCPPCPAPEAAGAPSVFLFPPKPKDTLMISRTPEVTCVVVDVSHEDPEVKFNWYVDGVEVHNAKTKPREEQYNSTYRVVSVLTVLHQDWLNGKEYKCAVSNKALPAPIEKTISKAKGQPREPQVYTLPPSRDELTKNQVSLTCLVKGFYPSDIAVEWESNGQPENNYKTTPPVLDSDGSFFLYSKLTVDKSRWQQGNVFSCSVMHEALHNHYTQKSLSLSP
notes: Humanized VHH-Fc antibody
[1]
  Kd: 122 nM
[2]
  Kd: 1630 nM
[3]
  Kd: 599 nM

B2: 4A7 hu-8 (Fc fusion)
chain: EVQLLESGGGLVQPGGSLRLSCAASGRTFSTNVMGWFRQAPGKEREFVSAISRAGSTYSADSVKGRFTISRDNSKNTLYLQMNSLRAEDTAVYYCAAGSSPTAIFGKSGMDYWGQGTQVTVSSGGGGSGGGGSDKTHTCPPCPAPEAAGAPSVFLFPPKPKDTLMISRTPEVTCVVVDVSHEDPEVKFNWYVDGVEVHNAKTKPREEQYNSTYRVVSVLTVLHQDWLNGKEYKCAVSNKALPAPIEKTISKAKGQPREPQVYTLPPSRDELTKNQVSLTCLVKGFYPSDIAVEWESNGQPENNYKTTPPVLDSDGSFFLYSKLTVDKSRWQQGNVFSCSVMHEALHNHYTQKSLSLSP
notes: Humanized VHH-Fc antibody
[1]
  Kd: 10.4 nM
[2]
  Kd: 92.7 nM
[3]
  Kd: 57.5 nM

B3: 4A7 hu-10 (Fc fusion)
chain: EVQLLESGGGLVQPGGSLRLSCAASGRTFSSYVMGWVRQAPGKGLEWVSAISRAGSTYSADSVKGRFTISRDNSKNTLYLQMNSLRAEDTAVYYCAAGSSPTAIFGKSGMDYWGQGTQVTVSSGGGGSGGGGSDKTHTCPPCPAPEAAGAPSVFLFPPKPKDTLMISRTPEVTCVVVDVSHEDPEVKFNWYVDGVEVHNAKTKPREEQYNSTYRVVSVLTVLHQDWLNGKEYKCAVSNKALPAPIEKTISKAKGQPREPQVYTLPPSRDELTKNQVSLTCLVKGFYPSDIAVEWESNGQPENNYKTTPPVLDSDGSFFLYSKLTVDKSRWQQGNVFSCSVMHEALHNHYTQKSLSLSP
notes: Humanized VHH-Fc antibody
[1]
  Kd: 197 nM
[2]
  Kd: 805 nM
[3]
  Kd: 622 nM

B4: 4A7 hu-11 (Fc fusion)
chain: EVQLLESGGGLVQPGGSLRLSCAASGRTFSSYVMGWFRQAPGKGLEWVSAISRAGSTYSADSVKGRFTISRDNSKNTLYLQMNSLRAEDTAVYYCAAGSSPTAIFGKSGMDYWGQGTQVTVSSGGGGSGGGGSDKTHTCPPCPAPEAAGAPSVFLFPPKPKDTLMISRTPEVTCVVVDVSHEDPEVKFNWYVDGVEVHNAKTKPREEQYNSTYRVVSVLTVLHQDWLNGKEYKCAVSNKALPAPIEKTISKAKGQPREPQVYTLPPSRDELTKNQVSLTCLVKGFYPSDIAVEWESNGQPENNYKTTPPVLDSDGSFFLYSKLTVDKSRWQQGNVFSCSVMHEALHNHYTQKSLSLSP
notes: Humanized VHH-Fc antibody
[1]
  Kd: 154 nM
[2]
  Kd: 796 nM
[3]
  Kd: 828 nM

B5: 4A7 hu-12 (Fc fusion)
chain: EVQLLESGGGLVQPGGSLRLSCAASGRTFSSYVMGWVRQAPGKGLEFVSAISRAGSTYSADSVKGRFTISRDNSKNTLYLQMNSLRAEDTAVYYCAAGSSPTAIFGKSGMDYWGQGTQVTVSSGGGGSGGGGSDKTHTCPPCPAPEAAGAPSVFLFPPKPKDTLMISRTPEVTCVVVDVSHEDPEVKFNWYVDGVEVHNAKTKPREEQYNSTYRVVSVLTVLHQDWLNGKEYKCAVSNKALPAPIEKTISKAKGQPREPQVYTLPPSRDELTKNQVSLTCLVKGFYPSDIAVEWESNGQPENNYKTTPPVLDSDGSFFLYSKLTVDKSRWQQGNVFSCSVMHEALHNHYTQKSLSLSP
notes: Humanized VHH-Fc antibody
[1]
  Kd: 19.5 nM
[2]
  Kd: 79 nM
[3]
  Kd: 94.5 nM

B6: 4A7 hu-13 (Fc fusion)
chain: EVQLLESGGGLVQPGGSLRLSCAASGRTFSSYVMGWFRQAPGKGLEFVSAISRAGSTYSADSVKGRFTISRDNSKNTLYLQMNSLRAEDTAVYYCAAGSSPTAIFGKSGMDYWGQGTQVTVSSGGGGSGGGGSDKTHTCPPCPAPEAAGAPSVFLFPPKPKDTLMISRTPEVTCVVVDVSHEDPEVKFNWYVDGVEVHNAKTKPREEQYNSTYRVVSVLTVLHQDWLNGKEYKCAVSNKALPAPIEKTISKAKGQPREPQVYTLPPSRDELTKNQVSLTCLVKGFYPSDIAVEWESNGQPENNYKTTPPVLDSDGSFFLYSKLTVDKSRWQQGNVFSCSVMHEALHNHYTQKSLSLSP
notes: Humanized VHH-Fc antibody
[1]
  Kd: 10.7 nM
[2]
  Kd: 58.7 nM
[3]
  Kd: 72.8 nM

B7: 4A7 hu-4 (Fc fusion)
chain: EVQLLESGGGLVQPGGSLRLSCAASGRTFSTNVMGWVRQAPGKGLEFVSAISRAGSTYSADSVKGRFTISRDNSKNTLYLQMNSLRAEDTAVYYCAAGSSPTAIFGKSGMDYWGQGTQVTVSSGGGGSGGGGSDKTHTCPPCPAPEAAGAPSVFLFPPKPKDTLMISRTPEVTCVVVDVSHEDPEVKFNWYVDGVEVHNAKTKPREEQYNSTYRVVSVLTVLHQDWLNGKEYKCAVSNKALPAPIEKTISKAKGQPREPQVYTLPPSRDELTKNQVSLTCLVKGFYPSDIAVEWESNGQPENNYKTTPPVLDSDGSFFLYSKLTVDKSRWQQGNVFSCSVMHEALHNHYTQKSLSLSP
notes: Humanized VHH-Fc antibody
[1]
  Kd: 21 nM
[2]
  Kd: 175 nM
[3]
  Kd: 112 nM

B8: 4A7 hu-6 (Fc fusion)
chain: EVQLLESGGGLVQAGGSLRLSCAASGRTFSTNVMGWFRQAPGKGLEFVSAISRAGSTYSADSVKGRFTISRDNSKNTLYLQMNSLRAEDTAVYYCAAGSSPTAIFGKSGMDYWGQGTQVTVSSGGGGSGGGGSDKTHTCPPCPAPEAAGAPSVFLFPPKPKDTLMISRTPEVTCVVVDVSHEDPEVKFNWYVDGVEVHNAKTKPREEQYNSTYRVVSVLTVLHQDWLNGKEYKCAVSNKALPAPIEKTISKAKGQPREPQVYTLPPSRDELTKNQVSLTCLVKGFYPSDIAVEWESNGQPENNYKTTPPVLDSDGSFFLYSKLTVDKSRWQQGNVFSCSVMHEALHNHYTQKSLSLSP
notes: Humanized VHH-Fc antibody
[1]
  Kd: 9.59 nM
[2]
  Kd: 136 nM
[3]
  Kd: 99 nM

B9: 4A7 hu-7 (Fc fusion)
chain: EVQLLESGGGLVQPGGSLRLSCAASGRTFSTNVMGWFRQAPGKGREFVSAISRAGSTYSADSVKGRFTISRDNSKNTLYLQMNSLRAEDTAVYYCAAGSSPTAIFGKSGMDYWGQGTQVTVSSGGGGSGGGGSDKTHTCPPCPAPEAAGAPSVFLFPPKPKDTLMISRTPEVTCVVVDVSHEDPEVKFNWYVDGVEVHNAKTKPREEQYNSTYRVVSVLTVLHQDWLNGKEYKCAVSNKALPAPIEKTISKAKGQPREPQVYTLPPSRDELTKNQVSLTCLVKGFYPSDIAVEWESNGQPENNYKTTPPVLDSDGSFFLYSKLTVDKSRWQQGNVFSCSVMHEALHNHYTQKSLSLSP
notes: Humanized VHH-Fc antibody
[1]
  Kd: 9.76 nM
[2]
  Kd: 127 nM
[3]
  Kd: 61.7 nM

B10: 4A7 hu-9 (Fc fusion)
chain: EVQLLESGGGLVQPGGSLRLSCAASGRTFSSYVMSWVRQAPGKGLEWVSAISRAGSTYYADSVKGRFTISRDNSKNTLYLQMNSLRAEDTAVYYCAAGSSPTAIFGKSGMDYWGQGTQVTVSSGGGGSGGGGSDKTHTCPPCPAPEAAGAPSVFLFPPKPKDTLMISRTPEVTCVVVDVSHEDPEVKFNWYVDGVEVHNAKTKPREEQYNSTYRVVSVLTVLHQDWLNGKEYKCAVSNKALPAPIEKTISKAKGQPREPQVYTLPPSRDELTKNQVSLTCLVKGFYPSDIAVEWESNGQPENNYKTTPPVLDSDGSFFLYSKLTVDKSRWQQGNVFSCSVMHEALHNHYTQKSLSLSP
notes: Humanized VHH-Fc antibody
[1]
  Kd: 146 nM
[2]
  Kd: 652 nM
[3]
  Kd: 609 nM
